Substitutions are numbered along the chain they refer to. In names and notes the source's numbering stands. Several values for one entry are separate records, joined by “and”; a condition that tells them apart may be missing. Equal entries are not always repeated. Some results are limits rather than exact numbers.

Ten molecules from US20180265572A1 (Bristol-Myers Squibb, published 2018) can be followed below.

The target in assay [1] is human IGF-IR on cells (human, UniProt P08069 31-1367). As to the kind of experiment: cell-based or functional assay.
Assay [2] has as its target VEGFR2 fusion protein on Ba/F3 cells (extracellular domain of hVEGFR2 and intracellular domain of hEpoR) (human, UniProt P35968 20-764; P19235 274-508, limits assumed). As to the kind of experiment: cell-based or functional assay.
Assay [3] addresses T1, VEGFR-2 (KDR) on transfected cells (UniProt P35968 20-1356, limits assumed).
T1 construct: whole, on cells; also called Flk-1
As to the kind of experiment: competitive blocking assay on 293:KDR cells; competitor 200 nM IRDye 800CW-labelled Peg-V2Bshort. As to the method:
Similarly, the pegylated, his-tagged construct 385A08-Fn-V2B-cys was able to block the interaction of a mono-specific ¹⁰Fn3-based VEGFR-2 binder (Peg-V2Bshort, SEQ ID NO: 28) with VEGFR-2 present on 293:KDR cells. […] In particular, in a Ba/F3 assay (described below), the IC₅₀ for the monomeric, non-pegylated VEGFR2 binder V2Bshort (SEQ ID NO: 28) is approximately 0.1-3 nM whereas the IC₅₀ for the monomeric, non-pegylated VEGFR2 binder having SEQ ID NO: 44 (e.g., with an N-terminal extension) is approximately 8-13 nM. […] Both the R⁺ and 293:KDR cell based competitive blocking assays are described in detail in the materials and methods section below.
293:KDR (Sibtech, Brookfield, Conn.) were plated in 96 well plates at a concentration of 25,000 cells per well in DMEM (Invitrogen, Carlsbad, Calif.) containing 10% fetal bovine serum (Hyclone, Logan, Utah). The following day, cells were washed twice in serum free DMEM containing 0.1% BSA (Invitrogen, Carlsbad, Calif.). After the washes, the cells were incubated at 4° C. for 10 minutes in binding buffer (serum free DMEM+0.1% BSA) containing increasing concentrations of VEGFR-2 antagonists or controls. Typical controls included the mono-specific ¹⁰Fn3-based VEGFR2 binder (Peg-V2Bshort, SEQ ID NO: 28) (positive control) or the mono-specific ¹⁰Fn3-based IGF-IR binder (AT580-PEG40, SEQ ID NO: 27) (negative control). […]

Assay [4] has as its target T2, human IGF-IR-Fc fusion (human, UniProt P08069 31-932).
T2 construct: range 1-932; If it counts on the precursor, it includes the signal peptide; also called IGF1R-Fc; not shown: hinge and constant regions of human IgG
Put plainly: SPR (Biacore), captured IGF-IR-Fc, midscale material. A general note: SPR reads the build-up and loss of mass on a sensor chip optically.

Assay [5] concerns the target T3, VEGFR2-Fc (R&D Systems) (UniProt P35968 20-764).
T3 construct: Bought reagent; not shown: Fc part of the bought fusion; not described
Put plainly: SPR (Biacore), immobilised VEGFR2-Fc, midscale material.

The target in assay [6] is T2, human IGF-IR-Fc fusion. As to the kind of experiment: SPR (Biacore), captured IGF1R-Fc, midscale purified binder.
Assay [7] addresses T3, VEGFR2-Fc (R&D Systems). Put plainly: SPR (Biacore), immobilized VEGFR2-Fc, midscale purified binder.
Assay [8] has as its target T2, human IGF-IR-Fc fusion. Put plainly: SPR (Biacore), IGF-IR-Fc captured on Protein A/G, HTPP purified binder in solution, n=1, KD approximate.
Assay [9] deals with VEGFR-2 in nude mice (in vivo) (UniProt P35918 20-1345, limits assumed). Put plainly: cell-based or functional assay.
Assay [10] has as its target VEGFR-2 in cynomolgus monkeys (in vivo). As to the kind of experiment: cell-based or functional assay.
The target of assay [11] is T2, human IGF-IR-Fc fusion. Put plainly: SPR (Biacore), IGF1R-Fc captured on Protein A. Here is the method:
(§1) Affinity data was also measured from midscale and large scale material, for the pegylated version of the tandem construct 385A08-Fn-V2B-cys (SEQ ID NO: 9, with and without his tag). The specific materials and methods for these calculations are described below.
(§2) An alternative method is to capture the IGF—IR-Fc on Protein A. This method was used for calculating the affinity and kinetics of certain versions of the construct 385A08-Fn-V2B-cys (both pegylated and non-pegylated and with or without his tag) from midscale and large scale materials. Specifically, IGF—IR-Fc was captured on Protein A immobilized on a Biacore CM5 sensor chip by amine coupling. VEGFR2-Fc was immobilized directly on a CM5 chip by amine coupling. The affinity and kinetic analysis involved the capture of IGF—IR-Fc on Protein A followed by injection of the tandem adnectin in solution over IGF—IR-Fc and VEGFR2-Fc. The analytical surface was regenerated between samples with glycine pH 1.5. Sensorgrams were obtained at each concentration and were evaluated using Biacore T100 evaluation software to determine the rate constants kₐ (kₒₙ) and kd (koff).

Assay [12] deals with T3, VEGFR2-Fc (R&D Systems). Put plainly: SPR (Biacore), VEGFR2-Fc immobilized directly on the chip. Here is the method:
as §1, §2
The functionality of the V2B domain was assessed by evaluating a concentration series of the midscale and large scale purification of the tandem construct 385A08-Fn-V2B (pegylated, and non-pegylated versions, his-tag and non-his-tag versions) vs. VEGFR2-Fc that was directly immobilized on a CM5 chip surface (GE, Piscataway, N.J.). VEGFR2-Fc (R&D Systems, MN) was diluted to 12 ug/mL in 50 mM Acetate pH 5.0 for an immobilization level of ˜1300 RU. Varying concentrations of 385A08-Fn-V2B in the solution phase were monitored for association (2 minutes) and dissociation (10 minutes) kinetics at a flow rate of 50 uL/min. Two 30 second injections of 50 mM glycine pH 1.7 were used to regenerate the surface.

B1: Peg-V2Bshort (designed binder)
chain: GEVVAATPTSLLISWRHPHFPTRYYRITYGETGGNSPVQEFTVPLQPPTATISGLKPGVDYTITVYAVTDGRNGRLLSIPISINYRTEIDKPCQ
modifications: pegylated at position 93 (single cysteine); the tracer form is labelled with IRDye 800CW
As to B1, the “IC50, inhibition of proliferation of Rh41 cells (n=1)” value (shortened to “IC50, inhibition … (n=1)”) in [1] is above 50 nM. In addition, the “IC50, inhibition of VEGF-A dependent proliferation of Ba/F3 cells” value (from here on “IC50, inhibition … of Ba/F3 cells”) in assay [2] amounted to 10 nM. In [3], this molecule displayed an IC50 of around 20 nM.

B2: 385A08-GS10 (SEQ ID NO: 22)-V2B, his-tagged (designed binder)
chain: MGVSDVPRDLEVVAATPTSLLISWSARLKVARYYRITYGETGGNSPVQEFTVPKNVYTATISGLKPGVDYTITVYAVTRFRDYQPISINYRTEIDKGSGSGSGSGSGSGSGSGSGSVSDVPRDLEVVAATPTSLLISWRHPHFPTRYYRITYGETGGNSPVQEFTVPLQPPTATISGLKPGVDYTITVYAVTDGRNGRLLSIPISINYRTEIDKPSQHHHHHH
notes: also called 385A08-GS10-V2B; 385A08-GS10-V2B (Ser tail)
Turning to B2, in assay [1], the “IC50, inhibition … (n=1)” value is 27 nM. In [2], the “IC50, inhibition … of Ba/F3 cells” value was determined as 1.2 nM. The Kd is 0.04 nM in assay [4], 0.5 nM in assay [5] and around 0.3 nM in assay [8]. The koff in assay [6] was found to be 0.000308 s⁻¹; in [7] it was 0.000193 s⁻¹. Also, the kon came to 7.72e+06 M⁻¹ s⁻¹ in assay [6] and 414000 M⁻¹ s⁻¹ in assay [7].

B3: V2B-GS5-385A08 (designed binder)
single chain: MGVSDVPRDLEVVAATPTSLLISWRHPHFPTRYYRITYGETGGNSPVQEFTVPLQPPTATISGLKPGVDYTITVYAVTDGRNGRLLSIPISINYRTEIDKGSGSGSGSGSVSDVPRDLEVVAATPTSLLISWSARLKVARYYRITYGETGGNSPVQEFTVPKNVYTATISGLKPGVDYTITVYAVTRFRDYQPISINYRTEIDKPSQHHHHHH
notes: also called V2B-GS5-385A08 (Ser tail)
As for B3, the “IC50, inhibition … of Ba/F3 cells” value in assay [2] was 2 nM. In assay [8], this molecule registered a Kd of around 0.2 nM.

B4: 385A08-Fn-V2B-Cys (designed binder)
single chain: MGVSDVPRDLEVVAATPTSLLISWSARLKVARYYRITYGETGGNSPVQEFTVPKNVYTATISGLKPGVDYTITVYAVTRFRDYQPISINYRTEIDKPSTSTSTVSDVPRDLEVVAATPTSLLISWRHPHFPTRYYRITYGETGGNSPVQEFTVPLQPPTATISGLKPGVDYTITVYAVTDGRNGRLLSIPISINYRTEIDKPCQHHHHHH
Turning to B4, the “IC50, inhibition … (n=1)” value in assay [1] turned out to be 33 nM. The “IC50, inhibition … of Ba/F3 cells” value in assay [2] was determined as 1.3 nM.

B5: pegylated, non-his-tag version of 385A08-Fn-V2B-cys (designed binder)
chain: MGVSDVPRDLEVVAATPTSLLISWSARLKVARYYRITYGETGGNSPVQEFTVPKNVYTATISGLKPGVDYTITVYAVTRFRDYQPISINYRTEIDKPSTSTSTVSDVPRDLEVVAATPTSLLISWRHPHFPTRYYRITYGETGGNSPVQEFTVPLQPPTATISGLKPGVDYTITVYAVTDGRNGRLLSIPISINYRTEIDKPCQ
modifications: PEG on the single cysteine at position 203
notes: also called 385A08-Fn-V2B-cys (pegylated, no his-tag); 385A08-Fn-V2B-Cys (non-his tagged)
Turning to B5, in assay [9], the “plasma IC50, indirect-response PD model, nude mice bearing the A673 tumor” value is 7000 nM. Further, the “plasma IC50 (grand mean), PK/PD model, monkeys” value in assay [10] was determined as 159 nM. Further, in [11], the Kd is 0.982 nM and 1.04 nM; the koff was 0.00027 s⁻¹ and 0.000253 s⁻¹; the kon was 275000 M⁻¹ s⁻¹ and 244000 M⁻¹ s⁻¹. In assay [12], the dissociation constant (Kd) is 17.2 nM and 5.8 nM; the koff was 0.000115 s⁻¹ and 7.49e-05 s⁻¹; the kon was 6670 M⁻¹ s⁻¹ and 13000 M⁻¹ s⁻¹.

B6: V2B-GS10 (SEQ ID NO: 22)-385A08, his-tagged (designed binder)
chain: MGVSDVPRDLEVVAATPTSLLISWRHPHFPTRYYRITYGETGGNSPVQEFTVPLQPPTATISGLKPGVDYTITVYAVTDGRNGRLLSIPISINYRTEIDKGSGSGSGSGSGSGSGSGSGSVSDVPRDLEVVAATPTSLLISWSARLKVARYYRITYGETGGNSPVQEFTVPKNVYTATISGLKPGVDYTITVYAVTRFRDYQPISINYRTEIDKPSQHHHHHH
notes: also called V2B-GS10-385A08; V2B-GS10-385A08 (Ser tail)
As to B6, the “IC50, inhibition … of Ba/F3 cells” value in assay [2] came out at 1.9 nM. Moreover, the Kd was 0.05 nM in [4], 0.6 nM in assay [5] and around 0.2 nM in assay [8]. In addition, the koff was found to be 0.000204 s⁻¹ in [6] and 0.000222 s⁻¹ in assay [7]. In addition, the on-rate (kon) in assay [6] was 4.18e+06 M⁻¹ s⁻¹; in assay [7], 382000 M⁻¹ s⁻¹.

B7: V2B-Fn-385A08-Cys (designed binder)
single chain: MGVSDVPRDLEVVAATPTSLLISWRHPHFPTRYYRITYGETGGNSPVQEFTVPLQPPTATISGLKPGVDYTITVYAVTDGRNGRLLSIPISINYRTEIDKPSTSTSTVSDVPRDLEVVAATPTSLLISWSARLKVARYYRITYGETGGNSPVQEFTVPKNVYTATISGLKPGVDYTITVYAVTRFRDYQPISINYRTEIDKPCQHHHHHH
Take B7: the “IC50, inhibition … (n=1)” value in assay [1] is 6 nM. Besides, in assay [2], the “IC50, inhibition … of Ba/F3 cells” value was 0.8 nM.

B8: V2B-Fn-385A08 (designed binder)
single chain: B7 single chain with C203S
notes: also called V2B-Fn-385A08 (Ser tail)
B8: in assay [2], the “IC50, inhibition … of Ba/F3 cells” value turned out to be 2.2 nM. In assay [8], this molecule registered a Kd of around 0.2 nM.

B9: 385A08-GS5-V2B (designed binder)
single chain: MGVSDVPRDLEVVAATPTSLLISWSARLKVARYYRITYGETGGNSPVQEFTVPKNVYTATISGLKPGVDYTITVYAVTRFRDYQPISINYRTEIDKGSGSGSGSGSVSDVPRDLEVVAATPTSLLISWRHPHFPTRYYRITYGETGGNSPVQEFTVPLQPPTATISGLKPGVDYTITVYAVTDGRNGRLLSIPISINYRTEIDKPSQHHHHHH
notes: also called 385A08-GS5-V2B (Ser tail)
On to B9, for which the “IC50, inhibition … (n=1)” value in assay [1] came to 40 nM. The “IC50, inhibition … of Ba/F3 cells” value in assay [2] is 1 nM. In [8], this molecule gave a Kd of around 0.3 nM.

B10: AT580-PEG20-AT580 (designed binder)
chain: MGVSDVPRDLEVVAATPTSLLISWSARLKVARYYRITYGETGGNSPVQEFTVPKNVYTATISGLKPGVDYTITVYAVTRFRDYQPISINYRTEIDKPCQ
modifications: the two chains are joined by a 20 kDa PEG at position 98 (cysteine) of each; labelled with IRDye 800CW in the competition assay
Regarding B10, in assay [1], the “IC50, inhibition … (n=1)” value was determined as 0.07 nM.

Usually IC50 stands for the concentration that gives 50% inhibition. The low end stands for higher potency, the high end for lower potency. Usually Kd stands for the equilibrium constant for the complex coming apart. Low readings indicate higher affinity, high ones lower affinity. By koff is commonly meant a measure of how fast the partners let go of each other. Lower therefore signals slow dissociation. A word on the kon: it is the rate constant with which the complex forms. Read a high kon as fast association.
